Assay [1] deals with N-terminally 6×His-tagged FilP expressed in E. coli (Streptomyces coelicolor). Briefly: ultracentrifugation sedimentation assay; His-N-FilP 200 μg/ml dialysed against 50 mM Tris-HCl pH 6.8 with 0.2 M KCl and 1 M NaCl; 135,000-300,000g, 15-30 min, 25°C.
Assay [2] shares this target. Briefly: ultracentrifugation sedimentation assay; His-N-FilP 200 μg/ml dialysed against Tris pH 8.8; 135,000-300,000g, 15-30 min, 25°C.
For assay [3] the target is unchanged. Briefly: ultracentrifugation sedimentation assay; His-N-FilP 200 μg/ml dialysed against 50 mM Tris-HCl pH 6.8 with 0.2 M KCl; 135,000-300,000g, 15-30 min, 25°C.
The target is the same in assay [4]. Briefly: ultracentrifugation sedimentation assay; His-N-FilP 200 μg/ml dialysed against 50 mM Tris-HCl pH 6.8 with 1 M NaCl; 135,000-300,000g, 15-30 min, 25°C.
The target is the same in assay [5]. Briefly: turbidity (light scattering at 350 nm); His-N-FilP at 20-200 μg/ml dialysed against Tris assembly buffer; 96-well plate.
For assay [6] the target is unchanged. Briefly: ultracentrifugation sedimentation assay; His-N-FilP 200 μg/ml dialysed against 50 mM Tris-HCl pH 6.8 with 5 mM MgCl2; 135,000-300,000g, 15-30 min, 25°C.
Assay [7] shares this target. Briefly: ultracentrifugation sedimentation assay; His-N-FilP 200 μg/ml dialysed against 50 mM Tris-HCl pH 6.8 with 1 M NaCl; 135,000-300,000g, 15-30 min, 25°C. The source holds these as a separate data set.

For the substance “N-terminally 6×His-tagged FilP expressed in E. coli (natural protein)”, the percent of added protein recovered in the supernatant after ultracentrifugation amounted to 63% in assay [1]; 25% in assay [3]; 35% in assay [4]; 11% in assay [6]; 40% in assay [7]. Moreover, the percent of total FilP soluble (in the supernatant after ultracentrifugation) in assay [2] is 32%. Further, the critical concentration for filamentation in assay [5] turned out to be 33 µg/mL.

The values above are taken from article PMC6599971.
